Results reported in US20240076343A1 (CEPHALON, published 2024).
Each block holds one binder with its values, some of them ahead of it.

Tests used:
[1] = target: T1, native human PD-1 on PMA/ionomycin-activated primary human T cells (human, UniProt Q15116 25-288); assay: flow cytometry, activated human CD3+CD4+ T cells
T1 construct: whole, on cells; also called native hPD-1
Experimental: (§1) The binding of anti-hPD-1 antibodies and anti-hPD-1-attenuated hIL-2 fusion proteins on activated primary T cells expressing hPD-1 was examined by flow cytometry. […] Cells were then stained with 1:20 dilution of Allophycocyanin-conjugated anti-human IgG Fc to detect bound antibody. To delineate immune subsets, a cocktail of surface markers included anti-human CD3, anti-CD4, and anti-CD8 antibodies was used. […] Cells were analyzed on the BD Fortessa (BD Biosciences), FlowJo software version 10 was used to gate on T cell subsets then calculate gMFI of the allophycocyanin signal. EC₅₀ values were calculated from the gMFI across the titrated concentrations using GraphPad Prism 7 software. To test the binding of anti-hPD-1-hIL-2 fusion proteins, cryopreserved CD3+ T cells were activated with PMA/ionomycin and flow cytometry binding was performed identically as described above.

[2] = target: T2, native cynomolgus PD-1 on PMA/ionomycin-activated cynomolgus T cells (cynomolgus, UniProt B0LAJ3 25-288); assay: flow cytometry, activated cynomolgus CD3+CD8+ T cells
T2 sequence (B0LAJ3 entry or part of it limits assumed): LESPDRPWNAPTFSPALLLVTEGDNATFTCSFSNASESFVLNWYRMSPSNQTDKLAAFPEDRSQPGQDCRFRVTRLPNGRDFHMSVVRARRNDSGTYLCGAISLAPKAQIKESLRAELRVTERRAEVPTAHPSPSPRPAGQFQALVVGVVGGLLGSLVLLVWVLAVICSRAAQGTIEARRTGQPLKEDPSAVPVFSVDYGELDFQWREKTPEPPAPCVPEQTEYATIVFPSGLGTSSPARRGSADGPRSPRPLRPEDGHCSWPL
Experimental: (§2) Human PD-1 antibody-attenuated hIL-2 fusion proteins were also tested for binding to activated cynomolgus T cells using flow cytometry. […] 24 hours later, cells were stained using the same procedure as binding to human PD-1 primary cells described above except cynomolgus cross-reactive markers were used. FlowJo software version 10 was used to gate on live, CD3⁺CD4⁺ or CD3⁺CD8⁺ T cells and then to calculate gMFI of the Allophycocyanin signal. EC₅₀ values were calculated from the gMFI across the titrated concentrations of anti-hPD-1 antibodies or hPD-1 antibody-attenuated hIL-2 fusion proteins using GraphPad Prism 7 software.

[3] = target: T3, human PD-1 (amino acids 1-185) on transfected Jurkat cells (human, UniProt Q15116 21-185); assay: flow cytometry on Jurkat cells expressing hPD-1; cells pre-incubated with 10 µM anti-hPD-1 #1-mIgG2b-N297A
T3 construct: also called hPD-1; Jurkat+hPD-1 cell line
T3 sequence (Q15116 21-185 limits assumed): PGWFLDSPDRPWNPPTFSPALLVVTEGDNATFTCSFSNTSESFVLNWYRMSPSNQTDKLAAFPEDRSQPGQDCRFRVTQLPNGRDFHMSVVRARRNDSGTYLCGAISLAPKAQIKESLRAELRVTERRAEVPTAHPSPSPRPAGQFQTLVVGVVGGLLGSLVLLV
Experimental: (§3) Briefly, Jurkat cells stably expressing hPD-1 (as described in Protocol A above) were washed and re-suspended in FACS buffer containing 1:50 dilution of human FcR Blocking reagent. Cells were incubated at 4° C. for 10 minutes and washed. […] Cells were washed and incubated with test antibodies or antibody-attenuated hIL-2 fusion proteins serially diluted six-fold for an 8-point curve in 100 μL volume for one hour at 4° C. To detect bound test anti-hPD-1 antibodies or anti-hPD-1-attenuated hIL-2 fusion proteins, cells were washed again and incubated with 1:40 dilution of Allophycocyanin-conjugated anti-human IgG Fc monoclonal antibody for 45 minutes on ice. Cells were washed and re-suspended in FACS buffer containing 1:1000 dilution of Sytox Green (Thermo Fisher). […] Flow cytometry was carried out on the BD Canto II, BD Celesta, or BD Fortessa (BD Biosciences) flow cytometers and gMFI was calculated using FlowJo software version 10. EC₅₀ values were calculated from the gMFI of the Allophycocyanin signal across the titrated concentrations using GraphPad Prism 7 software.

[4] = target: T3, human PD-1 (amino acids 1-185) on …; assay: flow cytometry on Jurkat cells expressing hPD-1; cells pre-incubated with 10 µM anti-hPD-1 #2-mIgG2b-N297A
[5] = target: T3, human PD-1 (amino acids 1-185) on …; assay: flow cytometry, Jurkat+hPD-1 cells; competitor 10 µM anti-hPD-1 #1-mIgG2b-N297A
Experimental: as §3

[6] = target: T2, native cynomolgus PD-1 on …; assay: flow cytometry, activated cynomolgus CD3+CD4+ T cells
Experimental: as §2

[7] = target: T3, human PD-1 (amino acids 1-185) on …; assay: flow cytometry on Jurkat cells expressing hPD-1; no competitor
Experimental: as §3

[8] = target: T1, native human PD-1 on …; assay: flow cytometry, activated human CD3+CD8+ T cells
Experimental: as §1

[9] = target: human PD-1 on Jurkat Effector cells of the PD-1/PD-L1 blockade bioassay (Promega, Cat #J1255) (human, UniProt Q15116 25-288); assay: cell-based or functional assay
Chain of human PD-1 on Jurkat Effector cells of the PD-1/PD-L1 blockade bioassay (Promega, Cat #J1255) (Q15116 25-288): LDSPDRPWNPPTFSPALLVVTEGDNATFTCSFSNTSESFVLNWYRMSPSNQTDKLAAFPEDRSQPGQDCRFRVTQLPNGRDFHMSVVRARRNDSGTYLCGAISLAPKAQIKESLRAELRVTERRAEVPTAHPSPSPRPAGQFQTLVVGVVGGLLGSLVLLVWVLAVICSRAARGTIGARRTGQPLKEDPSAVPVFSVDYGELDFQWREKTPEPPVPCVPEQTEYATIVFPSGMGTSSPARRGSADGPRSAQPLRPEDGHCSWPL

[10] = target: T4, recombinant His-tagged human PD-1 (Acro Biosystems) (human, UniProt Q15116 25-167); assay: SPR, steady state, separate experiment; separate experiment; steady state KD
T4 construct: also called recombinant human PD-1; human PD-1 (Acro Biosystems, Cat #PD-1-H5221-100 ug)
T4 sequence (Q15116 25-167 limits assumed): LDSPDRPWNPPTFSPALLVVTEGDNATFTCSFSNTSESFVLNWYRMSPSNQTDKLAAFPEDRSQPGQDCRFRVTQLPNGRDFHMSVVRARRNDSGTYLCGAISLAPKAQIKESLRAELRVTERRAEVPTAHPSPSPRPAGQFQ

T1 sequence (Q15116 25-288): as the sequence (Q15116 25-288) above

EC50 [1]: 0.1 to 0.7 nM
EC50 [2]: 0.08 nM
EC50 (read off the curve) [3]: ~0.5 nM
EC50 (read off the curve) [4]: ~2 nM
fold shift of the dose-titration curve [5]: < 10 fold
EC50 [6]: 0.09 nM
EC50 (read off the curve) [7]: ~0.3 nM
EC50 [8]: 0.1 to 0.8 nM
luminescence (RLU), PD-1/PD-L1 blockade bioassay [9]: ~3000 RLU
B1: 2H7-hIgG4 (antibody)
heavy: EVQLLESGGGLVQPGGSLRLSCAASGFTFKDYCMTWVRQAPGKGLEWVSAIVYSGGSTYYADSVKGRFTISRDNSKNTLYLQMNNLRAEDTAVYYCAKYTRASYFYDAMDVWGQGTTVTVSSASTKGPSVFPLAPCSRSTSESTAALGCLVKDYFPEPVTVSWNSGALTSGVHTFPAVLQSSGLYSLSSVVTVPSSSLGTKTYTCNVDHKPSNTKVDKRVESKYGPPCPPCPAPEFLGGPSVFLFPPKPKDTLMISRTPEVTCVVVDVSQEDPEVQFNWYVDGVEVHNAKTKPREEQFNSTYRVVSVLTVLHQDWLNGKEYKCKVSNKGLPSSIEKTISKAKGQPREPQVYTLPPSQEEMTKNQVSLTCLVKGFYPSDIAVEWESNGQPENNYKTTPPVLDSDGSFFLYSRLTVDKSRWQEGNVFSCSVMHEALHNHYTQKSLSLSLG
light: EIVLTQSPGTLSLSPGERATLSCRASQSIGKSFLAWYQQKPGQAPRLLIYDASTRAADIPARFSGSGSGTDFTLTISSLEPEDFAVYYCQQYYDWPPLSFGGGTKVEIKRTVAAPSVFIFPPSDEQLKSGTASVVCLLNNFYPREAKVQWKVDNALQSGNSQESVTEQDSKDSTYSLSSTLTLSKADYEKHKVYACEVTHQGLSSPVTKSFNRGEC

Kd [10]: 1.23 nM
B2: H7-632-hIgG1-LAGA (antibody, V domains shown)
VH: EVQLLESGGGLVQPGGSLRLSCAASGFTFKSYAMHWVRQAPGKGLEWVSAIVYSGGSTYYADSVKGRFTISRDNSKNTLYLQMNSLRAEDTAVYYCAKYDRASYFYDAMDVWGQGTTVTVSS
VL: EIVLTQSPGTLSLSPGERATLSCRASQSISSSFLAWYQQKPGQAPRLLIYDASDRATGIPDRFSGSGSGTDFTLTISRLEPEDFAVYYCQQYYDWPPLSFGGGTKVEIKR
